Legend:
Bcl-2 ΔC22 = target: T1, Bcl-2 ΔC22 (Homo sapiens, UniProt P10415); test: Bcl-2 ΔC22
T1 construct: Human Bcl-2 (Acc. no. NP_000624; residues 1-217); made in house
Experimental: (§1) Table printed on a drawing sheet, FIGURE 2A
Head of the field: Bcl-2 ΔC22
The patent's description of the figure: FIG. 2 is a graphical representation showing pro-apoptotic BH3-only and pro-survival Bcl-2-like proteins have distinctive interactions. (A) Using competitive binding assays, the IC50 (nM) for the indicated interactions were determined. The results shown are from representative experiments; the variation observed in multiple experiments was less than two-fold (using different chips or protein batches). (B) Relative binding affinities of interactions (tabulated in A) were inversely plotted. The BH3 binding profiles of pro-survival proteins are shown. […] Color reproductions are available from the patentees on request.
(§2) First copying reader's note: The table itself prints no unit; IC50 (nM) is printed only on the axis of panel B of the same figure, which plots the same values.
Where the first naming reader finds the target: head: Bcl-2 ΔC22

Bcl-xL ΔC24 = target: T2, Bcl-xL ΔC24 (Homo sapiens, UniProt Q07817); test: Bcl-xL ΔC24
T2 construct: Human Bcl-xL (Acc. no. NP_612815; residues 1-209); GST (N, cleaved yes); made in house
T2 sequence (Q07817 1-209, stated change not applied): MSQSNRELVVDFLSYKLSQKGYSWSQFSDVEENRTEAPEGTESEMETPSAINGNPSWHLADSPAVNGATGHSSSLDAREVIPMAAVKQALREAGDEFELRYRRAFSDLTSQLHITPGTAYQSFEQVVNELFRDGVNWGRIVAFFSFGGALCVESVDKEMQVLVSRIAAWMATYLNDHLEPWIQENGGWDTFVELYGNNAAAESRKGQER
Experimental: as §1
Head of the field: Bcl-xL ΔC24
(§3) The patent's description of the figure: FIG. 2 is a graphical representation showing pro-apoptotic BH3-only and pro-survival Bcl-2-like proteins have distinctive interactions. (A) Using competitive binding assays, the IC50 (nM) for the indicated interactions were determined. The results shown are from representative experiments; the variation observed in multiple experiments was less than two-fold (using different chips or protein batches). (B) Relative binding affinities of interactions (tabulated in A) were inversely plotted. The BH3 binding profiles of pro-survival proteins are shown. In (C), the sequences of human Bcl-2 (residues 93-202), human Bcl-xL (86-195), human Bcl-w (42-151), mouse Mcl-1 (190-300) and mouse A1 (33-148) that form their BH3 binding grooves (α-helices 2 to 8; Hinds et al., EMBO J 22:1497-1507, 2003) were compared and presented as a phylogenetic tree. Color reproductions are available from the patentees on request.
as §2
Where the first naming reader finds the target: head: Bcl-xL ΔC24

A1 ΔC20 = target: T3, A1 ΔC20 (Mus musculus, UniProt Q07440); test: A1 ΔC20
T3 construct: mouse A1 (Acc. no. NP_033872; residues 1-152); GST (N, cleaved yes); made in house
T3 sequence (Q07440 1-152, stated change not applied): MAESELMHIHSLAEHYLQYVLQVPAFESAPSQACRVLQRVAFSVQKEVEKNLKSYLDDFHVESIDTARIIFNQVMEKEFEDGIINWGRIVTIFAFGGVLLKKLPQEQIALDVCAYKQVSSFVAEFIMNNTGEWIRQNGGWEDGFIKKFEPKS
Experimental: as §1
Head of the field: A1 ΔC20
as §3, §2
Where the first naming reader finds the target: head: A1 ΔC20

Bcl-w ΔC29 = target: T4, Bcl-w ΔC29 (Homo sapiens, UniProt Q92843, A128E/C29S); test: Bcl-w ΔC29
T4 construct: human Bcl-w (Acc. no. NP_004041; residues 1-164; C29S A128E); made in house
T4 sequence (Q92843 1-164 C29S/A128E): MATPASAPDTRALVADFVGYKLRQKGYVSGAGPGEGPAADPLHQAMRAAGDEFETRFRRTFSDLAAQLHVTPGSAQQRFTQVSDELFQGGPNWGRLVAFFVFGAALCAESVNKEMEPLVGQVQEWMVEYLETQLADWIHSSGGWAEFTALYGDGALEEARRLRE
Experimental: as §1, §3, §2

[1] = test system: mouse embryonic fibroblasts (MEFs); test: Killing of MEFs after retroviral expression, viability 24 hours after infection; type: cell-based; details: retroviral expression, 24 hours after infection
Experimental: FIG. 7 is a graphical representation showing that BH3-only proteins that bind selective targets have weak killing activity. (A) The affinities of BH3-only peptides for pro-survival proteins (tabulated in FIG. 3A) were inversely plotted to facilitate comparison of the patterns of BH3 binding. […] Immortalized 3T9 MEFs were infected with retroviruses expressing only GFP (control), or one of the BH3-only proteins and GFP. The viability of the infected (GFP^+ve) cells was determined by PI exclusion 24 hours after infection. The histograms represent means±1SD of at least 3 experiments. […] The filter was probed with a rat monoclonal anti-FLAG antibody. *Degradation product of Mcl-1. […] Viability of MEFs infected with retroviruses encoding the indicated proteins (GFP^+ve) was analyzed 24 hours after infection. The histograms represent means±1SD of at least 3 experiments. (E) Long-term survival of MEFs infected with BH3 expressing retroviruses. One hundred retrovirally-infected cells were plated and the absolute number of GFP^+ve colonies formed after 6 days scored. […] The data represent the average number of GFP^+ve colonies formed±1SD from at least 3 experiments. To assess the biological relevance of the selective binding, retroviral delivery was used to compare the ability of different BH3-only proteins to kill wild-type mouse embryonic fibroblasts (MEFs). To monitor expression of the introduced gene, a vector (pMIG) in which its expression is coupled via an internal ribosomal entry site (IRES) to that of green fluorescent protein (GFP) was used (Van Parijs et al., Immunity 11:281-288, 1999). The cells were efficiently infected (>90%) and the introduced BH3-only proteins were comparably expressed. Viability of the infected (GFP^+ve) cells was scored 24 hours after infection (FIGS. 7A, 7B) and in long-term colony assays (FIG. 7E). […] Thus, the neutralization of Mcl-1 by Noxa should be complemented by co-expression of a BadBH3 to neutralize Bcl-2 and Bcl-xL in MEFs (FIG. 8A).

FLAG-tagged Bcl-xL = target: T5, FLAG-tagged Bcl-xL (Homo sapiens, UniProt Q07817); test: Co-immunoprecipitation in transfected 293T cells; type: binding; details: tagged full-length proteins
T5 construct: expressed in transfected cells; host or cells: HEK293T
T5 sequence (Q07817 whole entry): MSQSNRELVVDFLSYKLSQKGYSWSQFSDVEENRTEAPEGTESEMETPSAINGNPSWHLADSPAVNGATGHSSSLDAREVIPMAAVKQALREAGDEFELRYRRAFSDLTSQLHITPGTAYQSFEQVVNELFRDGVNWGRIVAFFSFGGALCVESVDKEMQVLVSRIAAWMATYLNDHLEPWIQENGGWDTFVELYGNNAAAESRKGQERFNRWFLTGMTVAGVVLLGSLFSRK
From the text: (§4) Equivalent ^35S-labeled lysates harvested from 293T cells were immunoprecipitated with antibodies to the HA, FLAG (FL) or control (C) tags.
(§5) The maintenance, transfection and metabolic labeling of the human embryonic kidney (HEK) 293T cells with ^35S-methionine/cysteine (NEN) as well as co-immunoprecipitation have been described (Huang et al., Supra; Moriishi et al., Proc Natl Acad Sci USA 96:9683-9688, 1999; O'Conner et al., Supra). Briefly, equivalent TCA-precipitable lysates were immunoprecipiated using the mouse monoclonal antibodies to HA (HA.11; CRP), FLAG (M2; Sigma) and control Glu-Glu (CRP) tags. The proteins were resolved by SDS:PAGE, transferred onto nitrocellulose membranes and detected by fluorography (Amplify; Amersham Biosciences).
(§6) To verify the in vitro findings, interactions of selected pairs of the full-length N-terminally tagged proteins were investigated in mammalian cells by co-immunoprecipitation. […] The cells were metabolically labeled with ^35S-methionine/cysteine to permit semi-quantitative assessment of any interaction between co-associating radiolabeled proteins.
(§7) To verify the in vitro findings, selected pairs of the full-length N-terminally tagged proteins associated in mammalian cells were investigated by co-immunoprecipitation. […] The cells were metabolically labeled with ^35S-methionine/cysteine to permit semi-quantitative assessment of any interaction between the labeled proteins or interaction was gauged by the more sensitive western blotting.

FLAG-tagged Mcl-1 = target: T6, FLAG-tagged Mcl-1 (Mus musculus, UniProt P97287); test: Co-immunoprecipitation in transfected 293T cells; type: binding; details: tagged full-length proteins
T6 construct: expressed in transfected cells; host or cells: HEK293T
T6 sequence (P97287 whole entry): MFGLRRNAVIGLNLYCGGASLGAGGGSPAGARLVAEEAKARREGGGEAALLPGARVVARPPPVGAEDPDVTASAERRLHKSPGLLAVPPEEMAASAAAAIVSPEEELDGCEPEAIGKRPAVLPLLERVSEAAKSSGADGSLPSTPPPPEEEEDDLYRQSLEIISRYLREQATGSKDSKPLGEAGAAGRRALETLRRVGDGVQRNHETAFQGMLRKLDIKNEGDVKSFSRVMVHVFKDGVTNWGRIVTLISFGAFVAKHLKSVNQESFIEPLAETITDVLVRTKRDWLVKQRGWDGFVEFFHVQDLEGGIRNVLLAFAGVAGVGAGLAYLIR
From the text: as §4, §5, §6, §7

Mcl-1 ΔN151 ΔC23 = target: T7, Mcl-1 ΔN151 ΔC23 (Mus musculus, UniProt P97287); test: Mcl-1 ΔN151 ΔC23
T7 construct: mouse Mcl-1 (Acc. no. NP_031588; residues 152-308); GST (N, cleaved yes); made in house
T7 sequence (P97287 152-308, stated change not applied): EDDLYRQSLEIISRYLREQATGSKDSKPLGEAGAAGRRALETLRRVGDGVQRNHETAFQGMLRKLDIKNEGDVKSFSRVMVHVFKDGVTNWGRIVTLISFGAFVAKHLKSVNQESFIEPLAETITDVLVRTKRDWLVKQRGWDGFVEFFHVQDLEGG
Experimental: as §1
Head of the field: Mcl-1 ΔN151 ΔC23
as §3, §2
Where the first naming reader finds the target: head: Mcl-1 ΔN151 ΔC23

[2] = test system: mouse embryonic fibroblasts (MEFs); test: Long-term colony assay of retrovirally infected MEFs; type: cell-based; details: colonies after 6 days
Experimental: FIG. 7 is a graphical representation showing that BH3-only proteins that bind selective targets have weak killing activity. (A) The affinities of BH3-only peptides for pro-survival proteins (tabulated in FIG. 3A) were inversely plotted to facilitate comparison of the patterns of BH3 binding. […] Immortalized 3T9 MEFs were infected with retroviruses expressing only GFP (control), or one of the BH3-only proteins and GFP. The viability of the infected (GFP^+ve) cells was determined by PI exclusion 24 hours after infection. The histograms represent means±1SD of at least 3 experiments. […] The filter was probed with a rat monoclonal anti-FLAG antibody. *Degradation product of Mcl-1. […] Viability of MEFs infected with retroviruses encoding the indicated proteins (GFP^+ve) was analyzed 24 hours after infection. The histograms represent means±1SD of at least 3 experiments. (E) Long-term survival of MEFs infected with BH3 expressing retroviruses. One hundred retrovirally-infected cells were plated and the absolute number of GFP^+ve colonies formed after 6 days scored. […] The data represent the average number of GFP^+ve colonies formed±1SD from at least 3 experiments. […] Viability of the infected (GFP^+ve) cells was scored 24 hours after infection (FIGS. 7A, 7B) and in long-term colony assays (FIG. 7E).

T1 sequence (P10415 1-217, stated change not applied): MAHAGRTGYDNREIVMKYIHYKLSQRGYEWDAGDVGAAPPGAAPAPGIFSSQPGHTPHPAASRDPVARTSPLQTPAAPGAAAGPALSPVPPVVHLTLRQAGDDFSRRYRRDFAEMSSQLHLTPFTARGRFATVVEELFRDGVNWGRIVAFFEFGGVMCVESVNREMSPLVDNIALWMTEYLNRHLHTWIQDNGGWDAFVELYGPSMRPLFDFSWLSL

Q: “Hrk: BH3-only protein Hrk expressed from retrovirus in MEFs” was tested. Which IC50 (Bcl-2 ΔC22) did it give?
A: The IC50 was 320 nM.

Q: And the IC50 (Bcl-xL ΔC24)?
A: Its IC50 is 3.7 nM.

Q: And the IC50 (A1 ΔC20)?
A: Its IC50 is 46 nM.

Q: And the IC50 (Bcl-w ΔC29)?
A: The IC50 was 49 nM.

Q: With “Noxa m3: Noxa BH3 with K35E and F32I expressed in cells (Bims NoxaBH3 m3 in FIG. 9D) (PAELEVECATQLRRIGDELNFRQKLL)” as the substance, how does the “killing of MEFs” value [1] read?
A: Its value is “more potent killer than wild-type Noxa”.

Q: And the “interaction with Bcl-xL by co-immunoprecipitation” value (FLAG-tagged Bcl-xL)?
A: The value was “bound”.

Q: What about the “interaction with Mcl-1 by co-immunoprecipitation” value (FLAG-tagged Mcl-1) of the same substance?
A: The value was “binds”.

Q: Which results are given for “Puma: full-length human BH3-only protein Puma expressed in cells [listing 1 of 2 here]”?
A: IC50 (Mcl-1 ΔN151 ΔC23): 5 nM; IC50 (A1 ΔC20): 5.7 nM

Q: How did the “killing of MEFs” value [1] turn out when “Puma: full-length human BH3-only protein Puma expressed in cells [listing 2 of 2 here]” was run?
A: Its value is “soon died”.

Q: What about the “interaction with Mcl-1 by co-immunoprecipitation” value (FLAG-tagged Mcl-1) of the same substance?
A: Its value is “well”.

Q: What about the “long-term survival, GFP+ve colonies” value [2] of the same substance?
A: The value was “failed to generate colonies”.

From patent publication US20080027145A1, “Therapeutic Molecules and Methods for Generating and/or Selecting Same” (priority 2004, published 2008)
